Drawing on publication PMC4970993, “Kinetic studies on recombinant UDP-glucose: sterol 3-O-β-glycosyltransferase from Micromonospora rhodorangea and its bioconversion potential” (AMB Express, 2016), this text covers Km, kcat and kcat/Km for 1 protein.

Substrate in series [1]: CC(C)[C@H](C)CC[C@@H](C)[C@H]1CC[C@H]2[C@@H]3CC=C4C[C@@H](O)CC[C@]4(C)[C@H]3CC[C@]12C
Kind of series: HPLC-MS/MS of sterol glucoside formation, Michaelis-Menten fit. Format: biochemical, Micromonospora echinospora. The settings on record: glycosyl acceptor, 0.8 mM UDP-Glc, 50 mM Tris-HCl pH 7.4 (pH 7.5), 5 mM MgCl2, 30 °C, apparent. The source says:
(§1) HPLC-MS/MS of sterol glucoside formation, Michaelis-Menten fit on MrSGT

Substrate in series [2]: C/C=C(\CC[C@@H](C)[C@H]1CC[C@H]2[C@@H]3CC=C4C[C@@H](O)CC[C@]4(C)[C@H]3CC[C@]12C)C(C)C
The description is as above. Format: biochemical, Micromonospora echinospora. Conditions: glycosyl acceptor, 0.8 mM UDP-Glc, 50 mM Tris-HCl pH 7.4 (pH 7.5), 5 mM MgCl2, 30 °C, apparent.
Text: as §1

Substrate in series [3]: O=c1ccn([C@@H]2O[C@H](CO[P@@](=O)(O)O[P@@](=O)(O)O[C@H]3O[C@H](CO)[C@@H](O)[C@H](O)[C@H]3O)[C@@H](O)[C@H]2O)c(=O)[nH]1
The description is as above. Format: biochemical, Micromonospora echinospora. Conditions: glycosyl donor, 0.6 mM β-sitosterol as acceptor, 50 mM Tris-HCl pH 7.4 (pH 7.5), 5 mM MgCl2, 30 °C, apparent.
Text: as §1

Substrate in series [4]: [H][C@@]12CC=C3C[C@@H](O)CC[C@]3(C)[C@@]1([H])CC[C@@]1(C)[C@@]2([H])CC[C@]1([H])[C@H](C)CC[C@@H](CC)C(C)C
The series is described as above. Format: biochemical, Micromonospora echinospora. Conditions: glycosyl acceptor, 0.8 mM UDP-Glc, 50 mM Tris-HCl pH 7.4 (pH 7.5), 5 mM MgCl2, 30 °C, apparent.
Text: as §1

Substrate in series [5]: C=C(CC[C@@H](C)[C@H]1CC[C@H]2C3=CC[C@H]4[C@H](C)[C@@H](O)CC[C@]4(C)[C@H]3CC[C@]12C)C(C)C
The series is described as above. Conditions: glycosyl acceptor, 0.8 mM UDP-Glc, 50 mM Tris-HCl pH 7.4 (pH 7.5), 5 mM MgCl2, 30 °C, apparent. Format: biochemical, Micromonospora echinospora.
Text: as §1

Substrate in series [6]: CC(C)CCC[C@@H](C)[C@H]1CC[C@H]2[C@@H]3CC=C4C[C@@H](O)CC[C@]4(C)[C@H]3CC[C@]12C
Kind of series: purified protein. The settings on record: glycosyl acceptor, 0.8 mM UDP-Glc, 50 mM Tris-HCl pH 7.4 (pH 7.5), 5 mM MgCl2, 30 °C, apparent.

B1: MrSGT (Micromonospora echinospora) (protein)
chain: MRILIATAGSRGDVAPYTGLGAALRRAGYDVAVATTDTFARMVRDAGLGFRRLPADTRGHAGVRSNREVVRAAGVHRGTGPGLRRRAVSEGTDLLLLSTTTAPLGWLIGEATGIRSLGVYLQPTAPTADFPPVVTGARSLGRLGNRTAGRLALRMADRIYAEAVAGLRERLCLPPLSAAAMRARQERAGWPVLHGFGTALVPRPADWRPGLEVVGPWWPHHDAGERLPSELEDFLDAGPRPVLVGFGSMAAGDGERLSELAVRALRRAGLRGILQSGNACLAAEGDDVLTVGDVPHALLFPRLAAVVHHGGAGTRRDPAGGRPLGGGPGDRRPEPFWAGRLARIGAAPAPVPFTTLTADGLAGALGRVVGDEAYARAAEKAARHLAAEDGAARV
notes: recombinant His-tagged protein expressed in E. coli BL21(DE3), purified; ORF from fosmid library
The Km is the concentration of substrate that gives half-maximal velocity. What is called kcat is the number of substrate molecules converted per active site and unit of time at saturation. As a reminder, the kcat/Km is the second-order rate constant that governs catalysis at low substrate concentration. Take B1: the Km in series [1] turned out to be 280 ± 30 µM; in series [2], 130 ± 20 µM; in series [3] it was 280 ± 30 µM; in series [4], 90 ± 10 µM; in series [5], 510 ± 60 µM; in series [6], 450 ± 50 µM. Moreover, the kcat turned out to be 0.128 ± 0.0165 s⁻¹ in series [1]; 0.122 ± 0.0273 s⁻¹ in series [2]; 0.122 ± 0.0172 s⁻¹ in series [3]; 0.122 ± 0.0172 s⁻¹ in series [4]; 0.13 ± 0.017 s⁻¹ in series [5]; 0.132 ± 0.0185 s⁻¹ in series [6]. The kcat/Km in series [1] turned out to be 457 M⁻¹ s⁻¹; in series [2], 940 M⁻¹ s⁻¹; in series [4], 1350 M⁻¹ s⁻¹; in series [5] it was 257 M⁻¹ s⁻¹; in series [6] it was 292 M⁻¹ s⁻¹.
